Source: the supplement of paper PMC9170038

Test system: K4 kissing-loop RNA reporter
Test: apparent KD of K4 kissing-loop reporter; higher = weaker reporter binding
Settings: Eterna round: R107
Experimental: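 RNA-MaP round R107: designed RNA switches with theophylline, tryptophan, arginine or FMN aptamers are transcribed on-chip within common flanks. They are titrated with a labelled K4 kissing-loop RNA reporter in RNA-MaP buffer (100 mM Tris pH 7.5, 80 mM KCl, 4 mM MgCl2), without ligand or with the indicated ligand. Median apparent KD per design.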

[1] = input ligand: theophylline 20 uM
[2] = input ligand: tryptophan 2.4 mM
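Note: bound reporter read as fluorescence of individual clusters on recovered sequencing chips by microscopy, with normalized cluster intensities fitted with a binding model.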

Sequence	apparent KD of K4 kissing-loop reporter (input ligand: FMN 200 uM) [µM]	apparent KD of K4 kissing-loop reporter (input ligand: arginine 13.2 mM) [µM]	apparent KD of K4 kissing-loop reporter (input ligand: none) [µM]	apparent KD of K4 kissing-loop reporter [1] [µM]	apparent KD of K4 kissing-loop reporter [2] [µM]
AGCUCAGAGUGACUUGAUAAGAGUCACAAACGAGGACCGGUACGGCCGCCACUCGAAAUAACGAGAGUGAUGUUCUCGCUGAGCA [FiskerMod 5 - Jieux - Same State Tryptophan A]	0.696	0.564	0.98	0.843	0.328
GGGAGUAGUGCGGCCGCCACUGAGAAAGAAGAAGAAUAUAGUGAUGUUAUAUAGGAAAUAAAGAACAGGACCGGGCAUUAGAUUU [SSTRyptB.N]	0.269	0.216	0.244	0.21	0.149
UGAUACCAGACGGCCGCCACUCCCGUAAGUCAAAGACUUACGAAGAGUAUCGUCCAGUGAUGUUGGAGGACCGGGUCUGGUAUCU [FiskerMod 10 - Jieux - Exclusion - Tryptophan B]	0.344	0.298	0.338	0.32	0.729
UUUUAAUAAGAGGAUACCAGUACAAAUAAAGUACAUUAAUAGUAGAGUGAUGUUCUAAAGUACCCUUGGCAGCUUAGAGUAAGUU [ExTheophylB.B]	0.123	0.242	0.156	0.26	0.0998
AGACUAUCGUCAAAGACGGUAGUCAAAAGUGAGGAUAUAAGUGAUGUUAGAAGGCACUAAGACUGUAUCGAAUAGAUACGGUCAA [FmnA 2 #K4BetweenAptamer #OpenEnded]	1.45	0.425	0.721	0.534	0.6
UGAUACCAGACGGCCGCCACUGGGACCGGGAGUGAUGUUCCGAAAAUUAAAUGCUCGGCCGCCACUAGGACCGGGUCUGGUAUCU [TrypBX 29 #DoubleAptamer #SwitchBubble]	0.727	0.407	0.446	0.231	0.453
GCUAUGGUAGGAAGGAGCGCUUAAUUAUUAAUAAGAGUGAUGUUCGAUAAUAAAUAUUUAUAGCAGGUAGGUCGCCUACUAUAGC [KL-SSArg B22]	0.155	0.168	0.174	0.243	0.104
UGACUGGACUGAAGGAGCGCGAAACUCCUAGUGAUGUUAGGAAAACGAGACAAAGUCUCGACGCAGGUAGGUCGCAGUCUAGUCU	0.125	0.102	0.103	0.115	0.135
GGCCCGGGCGCGGCCGCCACUCCCUCGUACCGCAAGGUAUGAUACCGAGUGAUGUUCGGUUGGAGGAGGACCGGGCGCCCGGGCC [#2 Exclusion - Tryptophan B Attempt #5 (HarryS)]	0.122	0.101	0.108	0.0774	0.0911
CCCUUGGUAUAUCGGUAUGUAUAAGCGGAUACCAGCCAGGACAACGGCCCUUGGCAGCCGGGCAGGCAGAGUGAUGUUCAUGCUA [theeternabot_exclusion_KL_Theo_A_22]	0.385	0.368	0.516	0.535	0.346
GAUCUGAACGAAAGUUCGGAUCAGUCCGAUACCAGUAUGGAUUCAUACCCUUGGCAGCGGUUAUCUGCUAUGGAGUGAUGUUCCU [Theophylline A K4 12]	0.363	0.332	0.41	0.447	0.227
AGGUCACCAGGAAGGAGCGCCCUGACAGGUUGCUGCCGUGGGCAGUGAUGUUGCUCAGUCCGGCAGGUAGGUCGCCUGGUGACCU	0.139	0.158	0.154	0.125	0.157
UGAUACCAGACGGCCGCCACUGCGCCAGUCAAUGACUGAGCGCGGUGGCGCUCAGUGAUGUUGAGCAGGACCGGGUCUGGUAUCU [Mod of Eli's TrypBX 8 v5]	0.149	0.126	0.146	0.144	0.147
GCAAAACGCAGUGAUGUUGCGAUCUCGGAAGGAGCGCGUGAAAACGCAGGUAGGUCGCCGAGUCAGUGAGUAUCUCGCUGUUUGC [Arginine A K4 19]	0.383	0.352	0.489	0.455	0.322
AAAGUUGAAAGUGAUACCAGACGAGUGAAGGGAAGAAAUUAAUUUGGAGUGAUGUUCCGCGUCCCUUGGCAGCACUUUGUAAUUU [Exclusion Theophylline B GF 23]	0.123	0.15	0.142	0.174	0.107
CGUGAGUGAUGUUCACGAUGCUUCAAUCUAGAGGAUAUUCACGAUCGAAGAAGGCUGGACAAGUGCUGUCUCAUGACAGAUAAGG [FMN A SS t4]	0.161	0.253	0.287	0.298	0.237
GCGCGCGGCGGAGGAUAUAGCCGGUGGUCCGGGAAAGUGAGUGAUGUUCGCGGAGUUCUGGAUAUGUUAGAAGGCCGCCGCGCGC [qwertyuiopasdfghjklzxcvbnm]	1.01	0.857	1.06	0.7	0.718
AUAGGAGUGAUGUUCCUUAGUCCCUCCGAUACCAGUAUGGAAACAUACCCUUGGCAGCGGUGGACCGCAGAUUAGGAAACUAGUC [Theophylline A K4 4]	0.232	0.238	0.216	0.231	0.206
AACGCCACCGCGGAUACCAGAGCCAGUGAUGUUGGAUCUGGAAAUUCGUGGGUAAGCUGGCUCCCUUGGCAGCUGCGGUUCUUUU [Tiisaron]	0.134	0.112	0.114	0.131	0.109
UACGUUUUAUUAACACUAAAUACAACUGAAGGAGCGACAAUAAAGUCAGGUAGGUCGCAGAAUUAAUGAGUGAUGUUCAUUUUUA [JR_ExcArginiA_Sub015]	0.0562	0.117	0.0659	0.092	0.0481
UGACGCCUGUCGGCCGCCACUCACAGCAGCCAGUGAUGUUGGAUUGUAGCGGAGUGAUGUUUCGCGAGGACCGGGACUGCAGUUG [Same State Tryptophan B GF 13]	0.259	0.249	0.26	0.321	0.25
